From article PMC6429771, “Identification of new glutamate decarboxylases from Streptomyces for efficient production of γ-aminobutyric acid in engineered Escherichia coli” (Journal of Biological Engineering, 2019) come the findings set out here.

Common to all, as to assay: GABA formation by Berthelot reaction, A630, Lineweaver-Burk plot
Substrate in data set [1]: N[C@@H](CCC(=O)O)C(=O)O
The data set is classed as biochemical, Streptomyces toxytricini. The following applies: 0.01 mM PLP, 200 mM Na2HPO4-citric acid buffer pH 5.2, 37 °C, 5-100 mM MSG.

Substrate in data set [2]: N[C@@H](CCC(=O)O)C(=O)O
The data set is classed as biochemical, Escherichia coli. The conditions noted are these: 0.01 mM PLP, 200 mM Na2HPO4-citric acid buffer pH 4.0, 37 °C, 5-100 mM MSG.

Substrate in data set [3]: N[C@@H](CCC(=O)O)C(=O)O
Format: biochemical, Streptomyces chromofuscus. The conditions noted are these: 0.01 mM PLP, 200 mM Na2HPO4-citric acid buffer pH 4.2, 37 °C, 5-100 mM MSG.

B1: StGAD (Streptomyces toxytricini) (protein)
chain: MALHKTKDVTGGDTGTDVFTTALSGRVLPKYRMPEEHSPSEAVYALLRNELLLDGNAAQNLATFCTTWSDDGVHRLMNECLDKNMVDKDEYPQTAEIEARCVNILAHLWHAPAEDGPATGCSTTGSSEAAMLGGLALKWRWRARRRAQGLPADRPNLVCGPVQVCWEKFARYFDVELRQIPLEEDATGLRPHQLAEYVDENTIGVVAILGVTYTCDYEPVADIAAALDAIQQEHGWDVPIHVDGASGGLVAPFLHPDVVWDFALPRVASINTSGHKYGLAPLGVGWVVWRTADLLPPELVFDVDYLGGDMPTFALNFSRPGGEAIAQYYLFLRLGRSGYRSVHQSCADTARFLAGEIAAMGPFTLLYDGQGALPAVSYRLTDPAAAGFTLYDLSDRLRMRGWQVPAYPLPARRDDTVIQRVLIRHGVTLDQIALLAEDMRRALDHLRAAPPTQPPTAPRSGFHH
notes: full-length ORF (1395 bp, about 464 residues, 53 kDa) in pET28a (NdeI/HindIII), His6-tagged, expressed in E. coli BL21(DE3), Ni-NTA purified
As a reminder, the Km is the substrate concentration at which the rate is half of its maximum. One may read the Vmax as the rate approached at saturating substrate. One may read the kcat as the maximal rate divided by the concentration of active sites. What is called kcat/Km is the second-order rate constant that governs catalysis at low substrate concentration. With B1, in data set [1], the Michaelis constant (Km) was determined as 7.67 ± 0.55 mM, the Vmax came to 0.226 ± 0.01 µmol/min/mg, the catalytic constant (kcat) was found to be 0.2 ± 0.02 s⁻¹ and the kcat/Km turned out to be 26 ± 3 M⁻¹ s⁻¹.

B2: GadB (Escherichia coli K-12) (protein)
chain: MDKKQVTDLRSELLDSRFGAKSISTIAESKRFPLHEMRDDVAFQIINDELYLDGNARQNLATFCQTWDDENVHKLMDLSINKNWIDKEEYPQSAAIDLRCVNMVADLWHAPAPKNGQAVGTNTIGSSEACMLGGMAMKWRWRKRMEAAGKPTDKPNLVCGPVQICWHKFARYWDVELREIPMRPGQLFMDPKRMIEACDENTIGVVPTFGVTYTGNYEFPQPLHDALDKFQADTGIDIDMHIDAASGGFLAPFVAPDIVWDFRLPRVKSISASGHKFGLAPLGCGWVIWRDEEALPQELVFNVDYLGGQIGTFAINFSRPAGQVIAQYYEFLRLGREGYTKVQNASYQVAAYLADEIAKLGPYEFICTGRPDEGIPAVCFKLKDGEDPGYTLYDLSERLRLRGWQVPAFTLGGEATDIVVMRIMCRRGFEMDFAELLLEDYKASLKYLSDHPKLQGIAQQNSFKHT
With B2, in data set [2], the Michaelis-Menten constant (Km) is given as 35.83 ± 2.40 mM, the Vmax was determined as 12.5 ± 0.72 µmol/min/mg, the kcat amounted to 11 ± 0.88 s⁻¹ and the kcat/Km amounted to 310 ± 20 M⁻¹ s⁻¹.

B3: ScGAD (Streptomyces chromofuscus) (protein)
chain: MPLHQGADRAADIPEEDRAELRRLSLNPFYGEADPVSEMTSAPPTQRLPEGPTPPHTAYQLVHDELMLDGNSRLNLATFVTTWMEPQAGVLMAECQDKNMIDKDEYPRTAELERRCVAMLADLWNAPDPATAVGCSTTGSSEACMLAGLALKRRWAKRNAARYPATARPNLVMGVNVQVCWEKFCTFWEVEARLVPMEGDRFHLDPQAAADLCDEDTIGVVAVLGSTFDGSYEPVAELCAVLDALQERTGLDVPVHVDGASGAMIAPFLDEDLVWDFRLPRVSSINTSGHKYGLVYPGVGWALWRSPAELPEELVFRVNYLGGDMPTFALNFSRPGAQVVAQYYTFLRLGRDGYRAVQQTARDIATTLSARIERLGGFRLLTRGDQLPVFAFTTASDVTNFDVFDVSRRLREHGWLVPAYTFPAHREDLSVLRVVCRNGFSADLAAMLVADLKRVLPELRAQERPMDRDPSAATAFHH
As for B3, in data set [3], the Michaelis constant (Km) stood at 23.25 ± 2.07 mM, the Vmax was 29.9 ± 2.16 µmol/min/mg, the kcat was found to be 28.1 ± 1.99 s⁻¹ and the kcat/Km stood at 1210 ± 90 M⁻¹ s⁻¹.
